Laboratory results as given in US11015206B2, “Compositions and methods comprising sequences having hydroxyphenylpyruvate dioxygenase (HPPD) activity” (PIONEER HI-BRED INTERNATIONAL, INC., priority 2014, dated 2021).

Assays:
Type in all cases: biochemical, Z. mays
[1] = system: 4-hydroxyphenylpyruvate dioxygenase (HPPD); assay: ON rate ratio: HPPD reaction rate with vs without inhibitor in the 70 to 90 second interval; details: for ON ratio (parameters with tembotrione): Table 5; for Insensitivity, isoxaflutole (DKN), Rate ratio ON: inhibitor diketonitrile form of isoxaflutole (DKN); for Insensitivity, mesotrione, Rate ratio ON: inhibitor mesotrione; for Insensitivity, sulcotrione, Rate ratio ON: inhibitor sulcotrione; for Insensitivity, tembotrione, Rate ratio ON: inhibitor tembotrione; for Insensitivity, topramezone, Rate ratio ON: inhibitor topramezone
How it was run: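 Indicator of inhibitor on-rate: reaction velocity in the 70 to 90 second window with 4 μM inhibitor divided by that without. Reactions contained 100 μM HPP and 60 or 120 nM HPPD; slower binding gives a larger ratio.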

[2] = system: 4-hydroxyphenylpyruvate dioxygenase (HPPD); assay: Estimate of kcat from initial rate at saturating hydroxyphenylpyruvate without inhibitor (ON rate ratio assay)
How it was run: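 kcat was estimated from the initial reaction rate with known enzyme level (60 or 120 nM HPPD). Hydroxyphenylpyruvate was at a saturating 100 μM, with no inhibitor present.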

[3] = system: 4-hydroxyphenylpyruvate dioxygenase (HPPD); assay: Insensitivity parameter (ON × OFF) and trait fitness (ON × OFF × kcat/KM or × kcat); design: key to ON × OFF / Insensitivity, mesotrione, ON × OFF / Insensitivity, tembotrione, ON × OFF / Insensitivity, topramezone, ON × OFF / Insensitivity, sulcotrione, ON × OFF / Insensitivity, isoxaflutole (DKN), ON × OFF: insensitivity = ON rate ratio × OFF rate ratio (surrogate for KD); details: for ON × OFF × kcat, Value / ON × OFF × kcat, Fold vs wt / ON × OFF, fold vs wt / ON × OFF (parameters with tembotrione): Table 5; for ON × OFF × kcat, Fold vs wt / ON × OFF, fold vs wt: fold vs maize wild type HPPD; for ON × OFF (parameters with tembotrione): insensitivity parameter; for Insensitivity, isoxaflutole (DKN), ON × OFF / Insensitivity, isoxaflutole (DKN), Trait fitness: inhibitor diketonitrile form of isoxaflutole (DKN); for Insensitivity, mesotrione, ON × OFF / Insensitivity, mesotrione, Trait Fitness: inhibitor mesotrione; for Insensitivity, sulcotrione, ON × OFF / Insensitivity, sulcotrione, Trait fitness: inhibitor sulcotrione; for Insensitivity, tembotrione, ON × OFF / Insensitivity, tembotrione, Trait fitness: inhibitor tembotrione; for Insensitivity, topramezone, ON × OFF / Insensitivity, topramezone, Trait Fitness: inhibitor topramezone
How it was run: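 Trait fitness combines catalysis and insensitivity as kcat/KM × ON rate ratio × OFF rate ratio. The insensitivity parameter is the product of ON and OFF rate ratios, used in place of KD because the ON rate ratio is inverse.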

[4] = system: 4-hydroxyphenylpyruvate dioxygenase (HPPD); assay: HPPD activity coupled assay with HGD; substrate saturation kinetic parameters (kcat, KM)
How it was run: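 Coupled continuous assay: His-tagged HPPD (5 to 240 nM, E. coli-expressed, Ni-NTA-purified) with 50 nM P. aeruginosa HGD in 25 mM Hepes pH 7, 2 mM ascorbate, 10 μM FeSO4; maleylacetoacetate followed at 320 nm. KM and Vmax from Lineweaver-Burke fits over 3.33–100 μM HPP.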

[5] = Table 5, single substitutions in Round 7 variant 9070 (SEQ ID NO:2), estimate from initial rate at saturating hydroxyphenylpyruvate without inhibitor
[6] = DKN (diketonitrile form of isoxaflutole)
[7] = Table 2, E. coli purified proteins
[8] = Table 6, single substitutions in SEQ ID NO:2
[9] = substrate saturation kinetic analysis
[10] = Table 7, tembotrione, combinatorial variants

B1: Z. mays wt: maize wild-type HPPD, SEQ ID NO:1 (glycine for proline at position 2) (protein)
chain: MGPTPTAAAAGAAVAAASAAEQAAFRLVGHRNFVRFNPRSDRFHTLAFHHVELWCADAASAAGRFSFGLGAPLAARSDLSTGNSAHASLLLRSGSLSFLFTAPYAHGADAATAALPSFSAAAARRFAADHGLAVRAVALRVADAEDAFRASVAAGARPAFGPVDLGRGFRLAEVELYGDVVLRYVSYPDGAAGEPFLPGFEGVASPGAADYGLSRFDHIVGNVPELAPAAAYFAGFTGFHEFAEFTTEDVGTAESGLNSMVLANNSENVLLPLNEPVHGTKRRSQIQTFLDHHGGPGVQHMALASDDVLRTLREMQARSAMGGFEFMAPPTSDYYDGVRRRAGDVLTEAQIKECQELGVLVDRDDQGVLLQIFTKPVGDRPTLFLEIIQRIGCMEKDEKGQEYQKGGCGGFGKGNFSQLFKSIEDYEKSLEAKQAAAAAAAQGS
modifications: Zea mays
ON ratio (parameters with tembotrione) ([1]; tembotrione): 0.17
Insensitivity, isoxaflutole (DKN), Rate ratio ON [1]: 0.08
Insensitivity, mesotrione, Rate ratio ON [1]: 0.20
Insensitivity, sulcotrione, Rate ratio ON [1]: 0.30
Insensitivity, tembotrione, Rate ratio ON [1]: 0.20
Insensitivity, topramezone, Rate ratio ON [1]: 0.100
ON rate ratio ([1]; mesotrione): 0.20
ON rate ratio ([1]; mesotrione, listed as wild type): 0.2
kcat [2, 5]: 210 min⁻¹
Insensitivity parameter, ON × OFF [3, 6]: 0.0096
Insensitivity parameter, ON × OFF ([3]; Mesotrione, Table 6): 0.0437
Insensitivity parameter, ON × OFF ([3]; Sulcotrione): 0.0872
ON × OFF × kcat, Value ([3]; tembotrione): 1.07
ON × OFF × kcat, Fold vs wt ([3]; tembotrione): 1.00
ON × OFF, fold vs wt ([3]; tembotrione): 1.00
ON × OFF (parameters with tembotrione) ([3]; tembotrione): 0.0051
Insensitivity parameter, ON × OFF ([3]; Tembotrione): 0.0051
Insensitivity parameter, ON × OFF ([3]; Topramezon): 0.0154
Insensitivity, isoxaflutole (DKN), ON × OFF [3]: 0.0005
Insensitivity, isoxaflutole (DKN), Trait fitness [3]: 0.015
Insensitivity, mesotrione, ON × OFF [3]: 0.062
Insensitivity, mesotrione, Trait Fitness [3]: 2.1
Insensitivity, sulcotrione, ON × OFF [3]: 0.042
Insensitivity, sulcotrione, Trait fitness [3]: 1.45
Insensitivity, tembotrione, ON × OFF [3]: 0.007
Insensitivity, tembotrione, Trait fitness [3]: 0.26
Insensitivity, topramezone, ON × OFF [3]: 0.002
Insensitivity, topramezone, Trait Fitness [3]: 0.077
Fitness Fold vs Zm wt ([3]; mesotrione): 1
fold less sensitive to mesotrione than soybean HPPD ([3]; mesotrione): 40 fold
Insensitivity parameter, ON × OFF ([3]; mesotrione, Table 2): 0.06
Km [4, 7]: 6.4 µM
kcat [4, 7]: 219 min⁻¹
Km ([4]; Table 6): 6.4 µM
kcat [4, 8]: 219 min⁻¹
Km [4, 9]: 6.41 µM
kcat [4, 9]: 219 min⁻¹
kcat ([4]; text b374): about 220 min^−1

B2: R7-9070: shuffled maize HPPD, Round 7, variant 9070 (SEQ ID NO:2); backbone for saturation mutagenesis (protein)
chain: MGPTPTATAAGAAVAAASAAEQAAFRLVGHRNFVRFNPRSDRFQTLAFHHVELWCADAASAAGRFSFALGVPLAARSDLSTGNSAHASLLLRSGSLSLLFTAPYAHGADAATAALPSFSAAAARRFAADHGLAVRAVALRVADAEDAFRASVAAGARPAFGPVDLGRGFRLAEVELYGDVVLRYVSYPDGAAGEPFLPGFEGVASPGAADYGLSRFDHIVGNVPELAPAAAYMAGFTGFHEFAEFTTEDVGTTESGLNSMALANNSENVLLPLNEPVHGTKRRSQIQTFLDHHGGPGVQHIALASDDVLRTLREMRARSAMGGFEFLPPPLSDYYDGVRRCAGDVLTEAQINECQELGVMVDRDDQGVLLQIFTKPVGDRPTFFLEIIQRIGCMEKDEKGQEYQKGGCGGFGKGNFGQLFKSIEDYEKSLEAKQAAAAATAQGS
modifications: Zea mays variant form created by artificial means.
notes: backbone for saturation mutagenesis
ON ratio (parameters with tembotrione) ([1]; tembotrione): 0.74
ON rate ratio [1, 10]: 0.744
Insensitivity, isoxaflutole (DKN), Rate ratio ON [1]: 0.82
Insensitivity, mesotrione, Rate ratio ON [1]: 0.66
Insensitivity, sulcotrione, Rate ratio ON [1]: 0.81
Insensitivity, tembotrione, Rate ratio ON [1]: 0.80
Insensitivity, topramezone, Rate ratio ON [1]: 0.79
ON rate ratio ([1]; mesotrione): 0.67
kcat ([2]; Megatable 3, shuffled variants): 40 min⁻¹
kcat [2, 5]: 34.2 min⁻¹
kcat ([2]; Table 7, combinatorial variants): 40 min⁻¹
Insensitivity parameter, ON × OFF [3, 6]: 0.24
ON × OFF ([3]; Megatable 3, shuffled variants): 0.086
ON × OFF × kcat ([3]; Megatable 3, shuffled variants): 3.45
Insensitivity parameter, ON × OFF ([3]; Mesotrione, Table 6): 0.45
Insensitivity parameter, ON × OFF ([3]; Sulcotrione): 0.56
ON × OFF × kcat, Value ([3]; tembotrione): 5.25
ON × OFF × kcat, Fold vs wt ([3]; tembotrione): 4.90
ON × OFF, fold vs wt ([3]; tembotrione): 30.0
ON × OFF (parameters with tembotrione) ([3]; tembotrione): 0.15
ON × OFF [3, 10]: 0.086
ON × OFF × kcat [3, 10]: 3.45
Insensitivity parameter, ON × OFF ([3]; Tembotrione): 0.19
Insensitivity parameter, ON × OFF ([3]; Topramezon): 0.26
Insensitivity, isoxaflutole (DKN), ON × OFF [3]: 0.11
Insensitivity, isoxaflutole (DKN), Trait fitness [3]: 3.30
Insensitivity, mesotrione, ON × OFF [3]: 0.59
Insensitivity, mesotrione, Trait Fitness [3]: 18.1
Insensitivity, sulcotrione, ON × OFF [3]: 0.38
Insensitivity, sulcotrione, Trait fitness [3]: 11.8
Insensitivity, tembotrione, ON × OFF [3]: 0.17
Insensitivity, tembotrione, Trait fitness [3]: 5.36
Insensitivity, topramezone, ON × OFF [3]: 0.13
Insensitivity, topramezone, Trait Fitness [3]: 3.99
Fitness Fold vs Zm wt ([3]; mesotrione): 7.9
Insensitivity parameter, ON × OFF ([3]; mesotrione, Table 2): 0.56
Insensitivity ON × OFF, Fold vs wt ([3]; mesotrione, vs maize wild type): 9.11
Km [4, 7]: 2.9 µM
kcat [4, 7]: 88.9 min⁻¹
Km ([4]; Table 6): 2.35 µM
kcat [4, 8]: 55.1 min⁻¹
Km [4, 9]: 2.91 µM
kcat [4, 9]: 88.9 min⁻¹
